This assay deals with T1, hCD131-Fc (IME021, inhouse) (human, UniProt P32927 17-443, limits assumed).
T1 construct: also called soluble CD131 subunit of hetero-EPOR; not shown: Fc
T1 sequence (looked up): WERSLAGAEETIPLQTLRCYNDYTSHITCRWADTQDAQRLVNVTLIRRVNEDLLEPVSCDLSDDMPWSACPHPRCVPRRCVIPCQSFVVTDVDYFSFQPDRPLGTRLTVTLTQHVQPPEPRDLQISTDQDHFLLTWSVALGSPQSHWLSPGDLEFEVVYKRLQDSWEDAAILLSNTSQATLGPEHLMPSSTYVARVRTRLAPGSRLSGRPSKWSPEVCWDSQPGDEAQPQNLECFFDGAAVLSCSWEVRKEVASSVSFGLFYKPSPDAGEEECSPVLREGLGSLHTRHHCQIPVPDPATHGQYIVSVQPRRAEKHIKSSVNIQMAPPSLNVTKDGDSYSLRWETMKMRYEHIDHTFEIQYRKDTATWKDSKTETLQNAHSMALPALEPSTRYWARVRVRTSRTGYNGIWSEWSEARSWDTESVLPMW
The experiment in a line: Octet BLI, antibody from supernatant captured on anti-mouse Fc biosensors, 30 nM soluble receptor Fc fusion. On the technique in general: Biolayer interferometry detects binding as a change in optical thickness at a sensor tip.

B1: hybridoma clone M26 (antibody, V domains shown)
VH: QVQLVQSGVEVKKPGASVKVSCKASGYAFSNNDISWVRQAPGQGLEWMAWITTSNGNTNYAPKLQGRVTMTTDTSTSTAYMELRSLKSDDTAVYYCARGGRTGYFDYWGQGTLVTVSS
VL: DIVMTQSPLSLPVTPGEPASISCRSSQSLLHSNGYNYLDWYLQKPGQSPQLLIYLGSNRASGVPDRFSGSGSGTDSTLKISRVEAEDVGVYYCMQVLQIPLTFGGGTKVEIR
notes: Hybridoma from ATX-GK mice; also called EPORab - M26
Regarding B1, the binding result is recorded as “binds”.
